Reference: patent US20230149462A1 (JUNO THERAPEUTICS, published 2023)

T1: human BCMA (human, UniProt Q02223 1-54, limits assumed)
T1 construct: also called B-cell maturation antigen; human BCMA polypeptide
T1 sequence: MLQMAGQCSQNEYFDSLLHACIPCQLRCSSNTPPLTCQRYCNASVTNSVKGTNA

B1: BCMA-26 scFv (scFv)
scFv: EVQLVESGGGLVKPGGSLRLSCAASGFTFSDYYMSWIRQAPGKGLEWVSYISSSGSTIYYADSVKGRFTISRDNAKNSLYLQMNSLRAEDTAVYYCAKVDGPPSFDIWGQGTMVTVSSGGGGSGGGGSGGGGSSYVLTQPPSVSVAPGQTARITCGANNIGSKSVHWYQQKPGQAPMLVVYDDDDRPSGIPERFSGSNSGNTATLTISGVEAGDEADYFCHLWDRSRDHYVFGTGTKLTVL
B2: BCMA-55-scFv (scFv)
scFv: QSALTQPASVSASPGQSIAISCTGTSSDVGWYQQHPGKAPKLMIYEDSKRPSGVSNRFSGSKSGNTASLTISGLQAEDEADYYCSSNTRSSTLVFGGGTKLTVLGSRGGGGSGGGGSGGGGSLEMAEVQLVQSGAEMKKPGASLKLSCKASGYTFIDYYVYWMRQAPGQGLESMGWINPNSGGTNYAQKFQGRVTMTRDTSISTAYMELSRLRSDDTAMYYCARSQRDGYMDYWGQGTLVTVSS
notes: also called BCMA-55-scFV-mFc
B3: BCMA-23 scFv (scFv)
scFv: EVQLVESGGGLVKPGGSLRLSCAASGFTFSDYYMSWIRQAPGKGLEWVSYISSSGSTIYYADSVKGRFTISRDNAKNSLYLQMNSLRAEDTAVYYCAKVDGDYTEDYWGQGTLVTVSSGGGGSGGGGSGGGGSQSALTQPASVSGSPGQSITISCTGSSSDVGKYNLVSWYQQPPGKAPKLIIYDVNKRPSGVSNRFSGSKSGNTATLTISGLQGDDEADYYCSSYGGSRSYVFGTGTKVTVL
B4: BCMA-52-scFv-mFc (Fc fusion)
chain: SYELTQPPSASGTPGQRVTMSCSGTSSNIGSHSVNWYQQLPGTAPKLLIYTNNQRPSGVPDRFSGSKSGTSASLAISGLQSEDEADYYCAAWDGSLNGLVFGGGTKLTVLGSRGGGGSGGGGSGGGGSLEMAEVQLVQSGAEVKKPGESLKISCKGSGYSFTSYWIGWVRQMPGKGLEWMGIIYPGDSDTRYSPSFQGHVTISADKSISTAYLQWSSLKASDTAMYYCARYSGSFDNWGQGTLVTVSS
notes: not shown: mFc portion named in the label
B5: BCMA-25 scFv (scFv)
scFv: EVQLVQSGGGLVQPGRSLRLSCTASGFTFGDYAMSWFRQAPGKGLEWVGFIRSKAYGGTTEYAASVKGRFTISRDDSKSIAYLQMNSLKTEDTAVYYCAAWSAPTDYWGQGTLVTVSSGGGGSGGGGSGGGGSDIQMTQSPAFLSASVGDRVTVTCRASQGISNYLAWYQQKPGNAPRLLIYSASTLQSGVPSRFRGTGYGTEFSLTIDSLQPEDFATYYCQQSYTSRQTFGPGTRLDIK

Target: T1, human BCMA
Assay: CLIPS peptide epitope mapping (Pepscan)
Experimental: Epitopes recognized, e.g., specifically bound by exemplary anti-BCMA scFv clones, were determined based on full discontinuous epitope mapping by Chemical Linkage of Peptides onto Scaffolds (CLIPS; Pepscan Presto BV, Lelystad, The Netherlands; see, e.g., Timmerman et al., (2007) J. Mol. Recognit. 20: 283-329). […] In some aspects, such antibodies recognize a non-linear or linear epitope including residues of such peptide of SEQ ID NO: 160, and in some aspects recognize a non-linear epitope further including residues of CIPCQLR (set forth in SEQ ID NO:159), […] and/or SVTNSVK (set forth in SEQ ID NO:161).

Binder | binding result
B1 | binds
B2 | binds
B3 | binds
B4 | binds
B5 | binds
